Reference: PMC2198872

Biological target: actin (filamentous actin from chicken pectoralis) (chicken) (UniProt P68139)
Test: laser trap

Row | Substance | displacement duration (t on, time attached to actin) [ms] | displacement duration, step 1 of double step events [ms] | displacement duration, step 2 of double step events [ms]
1 | M5HMM(tag) with calmodulin (from UniProt Q99104 1-1098; P0DP23 1-149) (complex) | 100 | – | –
2 | baculovirus-expressed (-)insert isoform of smooth muscle myosin HMM (from UniProt P10587 1-1979) (complex) | – | 468 | 400
3 | M5HMM containing only bound calmodulin (from UniProt Q99104 1-1098; P0DP23 1-149) (complex) | 120 | – | –
